# Laboratory results reported in patent US20150125904A1, “PROBE INCORPORATION MEDIATED BY ENZYMES” (Massachusetts Institute of Technology, priority 2012, published 2015).
# Legend:
# [1] = molecular target: biotinylated LAP-mCherry fusion protein; experiment: gel shift on SDS-PAGE of HEK cell lysate incubated with 5 µM streptavidin, in-gel mCherry fluorescence
# [2] = test system: O=C(O)CCCNC(=O)c1cc2cc(F)c(O)c(F)c2oc1=O; experiment: purified protein, by the assay type; conditions: other: ligation to LAP, 2 μM ligase, 600 μM LAP; pH 7.2
substance,measurement,setting,value
streptavidin protein (from UniProt P22629 37-163),percent of LAP-mCherry shifted up to ~80 kD,[1],21%
E20G/W37TLplA (Escherichia coli K-12; E21G/W38T),Km,[2],17.5 ± 4.3 µM
same,kcat,[2],0.014 ± 0.001 s⁻¹
